Four molecules from US20060121042A1 (AstraZeneca / MedImmune, published 2006) can be followed below.

One assay has as its target T1, r murine EphA4 (mouse, UniProt Q03137).
T1 construct: recombinant Fc fusion (R&D Systems); also called rmuEphA4-Fc; mEphA4
Briefly: activity ELISA, Fab on coated antigen. On the procedure:
(§1) More precisely, Nunc Maxisorp plates were coated with the following rEphA proteins: rhuEphAl-Fc, rmuEphA2-Fc, rmuEphA3-Fc, rmuEphA4-Fc, rratEphA5-Fc, rmuEphA6-Fc, rmuEphA7-Fc, rEphA8; all at 0.5 μg/well (all R&D Systems) rhuEphA2-Fc; 0.5 μg/well, and rhuEphA4-His; 0.1 μg/well (both produced at MedImmune, Inc.). Plates were blocked with 3% BSA+0.1% Tween20 for 2 h. […] Incubation with a goat anti-human kappa horseradish peroxydase (HRP) conjugate then followed. HRP activity was detected with TMB substrate and the reaction quenched with 0.2 M H₂SO₄. Plates were read at 450 nm. Data was analyzed by normalizing Fab concentrations to the corresponding activity data (see FIGS. 10B-10H).

A further assay deals with T2, r murine EphA7 (mouse, UniProt Q61772).
T2 construct: recombinant Fc fusion (R&D Systems); also called rmuEphA7-Fc; mEphA7
T2 sequence (receptor-Fc fusion, looked up): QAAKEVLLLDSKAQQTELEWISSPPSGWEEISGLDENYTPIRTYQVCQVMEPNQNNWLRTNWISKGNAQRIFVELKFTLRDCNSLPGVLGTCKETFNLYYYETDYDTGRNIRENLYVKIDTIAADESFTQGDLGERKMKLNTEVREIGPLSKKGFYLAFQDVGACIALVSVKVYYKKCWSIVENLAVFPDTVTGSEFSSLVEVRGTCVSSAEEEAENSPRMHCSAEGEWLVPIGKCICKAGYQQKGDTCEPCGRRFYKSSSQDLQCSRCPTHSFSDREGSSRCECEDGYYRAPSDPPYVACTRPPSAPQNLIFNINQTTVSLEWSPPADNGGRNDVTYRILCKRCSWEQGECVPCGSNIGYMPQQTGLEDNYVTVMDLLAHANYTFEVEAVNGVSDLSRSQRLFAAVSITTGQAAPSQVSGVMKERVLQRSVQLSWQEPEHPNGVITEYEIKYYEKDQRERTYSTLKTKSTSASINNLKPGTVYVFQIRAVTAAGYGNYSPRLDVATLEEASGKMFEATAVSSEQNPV
The assay can be described thus: activity ELISA, Fab on coated antigen. The protocol:
as §1

Assay [1] concerns the target T3, Human EphA4-Fc fusion protein (human, UniProt P54764 20-547).
T3 construct: not shown: Fc portion of a human IgG1
Briefly: BIAcore, IgG immobilized on the sensor chip, EphA4-Fc as analyte. On the procedure:
FIG. 15A-15B. […] Binding affinities were measured using the BIAcore assay. […] Variant kinetic measurements for human EphA4 and were obtained using BIAcore with immobilized variant antibodies and human EphA4-Fc and EphA4-His as analytes.

T1 sequence (Q03137 20-547 limits assumed): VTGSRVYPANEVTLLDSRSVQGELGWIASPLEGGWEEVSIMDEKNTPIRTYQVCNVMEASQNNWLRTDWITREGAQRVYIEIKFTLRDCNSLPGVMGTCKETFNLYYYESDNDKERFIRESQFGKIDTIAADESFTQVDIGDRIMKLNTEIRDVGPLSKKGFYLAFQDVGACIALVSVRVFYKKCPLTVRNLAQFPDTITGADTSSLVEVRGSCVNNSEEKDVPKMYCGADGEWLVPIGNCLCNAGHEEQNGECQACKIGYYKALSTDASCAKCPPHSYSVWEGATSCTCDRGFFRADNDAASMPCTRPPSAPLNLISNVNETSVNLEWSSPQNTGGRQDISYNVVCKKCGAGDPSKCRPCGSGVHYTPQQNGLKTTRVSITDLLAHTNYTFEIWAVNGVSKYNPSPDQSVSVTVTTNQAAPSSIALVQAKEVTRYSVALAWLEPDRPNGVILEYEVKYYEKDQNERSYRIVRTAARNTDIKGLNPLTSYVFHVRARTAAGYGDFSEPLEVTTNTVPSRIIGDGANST
T3 sequence (P54764 20-547): as the sequence (Q03137 20-547 limits assumed) above, with A59P, S121N, G124V, Q250R, N251S, S270T, R378K, S406N counted along it

B1: 1B10 Fab (affinity optimized combinatorial variant of Fab20) (Fab, V domains shown)
VH: QVQLLQSGAEVKKPGASVKVPCKASGYTFTSRAMSWVRQAPGQGLEWMGWINTNTGNPTYAQGFTGRFVFSLDTSVSTAYLQISSLKAEDTAVYYCARVRFTVYGDGMDVWGQGTLVTVSS
VL: EIVLTQSPATLSVSPGERATLSCRASQSVSSNPAWYQQKPGQAPRLLIYGASTWATGIPDRFSASGSGTDFTLTISRVEPEDFAVYYCQQYGPSWTFGQGTKVEIK
Turning to B1, the binding result with r murine EphA4 and in the assay with r murine EphA7 was “binds” throughout.

B2: 8B4 IgG1 (affinity optimized combinatorial variant of mAb GEA44 in human IgG1 format) (antibody, V domains shown)
VH: QVQLLQSGAEVKKPGASVKVPCKASGYTFTSRAMSWVRQAPGQGLEWMGWINTNTGNPTYAQGFTGRFVFSLDTSVSTAYLQISSLKAEDTAVYYCARVRLTVYGDGMDVWGQGTLVTVSS
VL: EIVLTQSPATLSVSPGERATLSCRASQSVSSNPAWYQQKPGQAPRLLIYGLSTRATGIPDRFSASGSGTDFTLTISRVEPEDFAVYYCQQYGPSWTFGQGTKVEIK
With B2, in assay [1], the Kd turned out to be 0.197 nM, the koff was determined as 2.2e-05 s⁻¹ and the kon was found to be 112000 M⁻¹ s⁻¹.

B3: 3C6 Fab (affinity optimized combinatorial variant of Fab20) (Fab, V domains shown)
VH: QVQLLQSGAEVKKPGASVKVPCKASGYTFTSRAMSWVRQAPGQGLEWMGWINTNTGNPTYAQGFTGRFVFSLDTSVSTAYLQISSLKAEDTAVYYCARVRLTVYGDGMDVWGQGTLVTVSS
VL: EIVLTQSPATLSVSPGERATLSCRASQSVSSNPPWYQQKPGQAPRLLIYGASTRATGIPDRFSASGSGTDFTLTISRVEPEDFAVYYCQQYGSSWTFGQGTKVEIK
Consider B3, for which the binding result with r murine EphA4 and with r murine EphA7 was “binds” in each case.

B4: 1D11 Fab (affinity optimized combinatorial variant of Fab20) (Fab, V domains shown)
VH: QVQLLQSGAEVKKPGASVKVPCKASGYTFTSRAMSWVRQAPGQGLEWMGWINTNTGNPTYAQGFTGRFVFSLDTSVSTAYLQISSLKAEDTAVYYCARVRTTVYGDNMDVWGQGTLVTVSS
VL: EIVLTQSPATLSVSPGERATLSCRASQSVSSNLPWYQQKPGQAPRLLIYGASTRATGIPDRFSASGSGTDFTLTISRVEPEDFAVYYCQQYGPSWTFGQGTKVEIK
Turning to B4, the binding result with r murine EphA4 and in the assay with r murine EphA7 was “binds” throughout.
